Source: IntAct's records for PubMed 25009770

B1: 26S proteasome non-ATPase regulatory subunit 9 (Homo sapiens), O00233 (parent)
chain: MSDEEARQSGGSSQAGVVTVSDVQELMRRKEEIEAQIKANYDVLESQKGIGMNEPLVDCEGYPRSDVDLYQVRTARHNIICLQNDHKAVMKQVEEALHQLHARDKEKQARDMAEAHKEAMSRKLGQSESQGPPRAFAKVNSISPGSPASIAGLQVDDEIVEFGSVNTQNFQSLHNIGSVVQHSEGKPLNVTVIRRGEKHQLRLVPTRWAGKGLLGCNIIPLQR

Key:
[1] = variants of: B1; details: with csh1_human CSH1, P0DML2
[2] = variants of: B1; details: with HNRNPA1, P09651-2
[3] = variants of: B1; details: with HNRNPA1, P09651-2; remark: listed apart in the source
[4] = variants of: B1; details: with csh1_human CSH1, P0DML2; remark: listed apart in the source
[5] = variants of: B1; details: with rs14_human RPS14, P62263
[6] = variants of: B1; details: with IL6R

| effect of a mutation on the interaction [1] | effect of a mutation on the interaction [2] | effect of a mutation on the interaction [3] | effect of a mutation on the interaction [4] | effect of a mutation on the interaction [5] | effect of a mutation on the interaction [6] | Variant |
| --- | --- | --- | --- | --- | --- | --- |
| decreasing interaction strength | decreasing interaction strength | disrupting interaction strength | disrupting interaction strength | decreasing interaction strength | disrupting interaction strength | MSDEEARQSGGSSQAGVVTVSDVQELMRRKEEIEAQIKANYDVLESQKGIGMNEPLVDCEGYPRSDVDLYQVRTARHNIICLQNDHKAVMKQVEEALHQLHARDKEKQARDMAEAHKEAMSRKLGQSESQGPPRAFAKVNSISPGSPASIAGLQVDDEIVEGGSVNTQNFQSLHNIGSVVQHSEGKPLNVTVIRRGEKHQLRLVPTRWAGKGLLGCNIIPLQR [F162G] |
| decreasing interaction strength | decreasing interaction strength | disrupting interaction strength | disrupting interaction strength | disrupting interaction strength | disrupting interaction strength | MSDEEARQSGGSSQAGVVTVSDVQELMRRKEEIEAQIKANYDVLESQKGIGMNEPLVDCEGYPRSDVDLYQVRTARHNIICLQNDHKAVMKQVEEALHQLHARDKEKQARDMAEAHKEAMSRKLGQSESQGPPRAFAKVNSISPGSPASIAGGQVDDEIVEFGSVNTQNFQSLHNIGSVVQHSEGKPLNVTVIRRGEKHQLRLVPTRWAGKGLLGCNIIPLQR [L153G] |
